Source: paper PMC12102759 (2025)

B1: AMOTL2 peptide 64-79 (Angiomotin-like protein 2), 16-mer library wild type / TNKS ANK (TNKS 12 ANK repeats, residues 174-649) (parent complex)
chain 1: QVLQQATRQEPQGQEH
chain 2: TGVPAVSGALRELLEACRNGDVSRVKRLVDAANVNAKDMAGRKSSPLHFAAGFGRKDVVEHLLQMGANVHARDDGGLIPLHNACSFGHAEVVSLLLCQGADPNARDNWNYTPLHEAAIKGKIDVCIVLLQHGADPNIRNTDGKSALDLADPSAKAVLTGEYKKDELLEAARSGNEEKLMALLTPLNVNCHASDGRKSTPLHLAAGYNRVRIVQLLLQHGADVHAKDKGGLVPLHNACSYGHYEVTELLLKHGACVNAMDLWQFTPLHEAASKNRVEVCSLLLSHGADPTLVNCHGKSAVDMAPTPELRERLTYEFKGHSLLQAAREADLAKVKKTLALEIINFKQPQSHETALHCAVASLHPKRKQVTELLLRKGANVNEKNKDFMTPLHVAAERAHNDVMEVLHKHGAKMNALDTLGQTALHRAALAGHLQTCRLLLSYGSDPSIISLQGFTAAQMGNEAVQQILSESTPIRTSD
B2: AMOTL2 peptide 66-81 (Angiomotin-like protein 2), 16-mer library wild type / TNKS ANK (TNKS 12 ANK repeats, residues 174-649) (parent complex)
chain 1: LQQATRQEPQGQEHQG
chain 2: B1 chain 2

Variants of: B1
Assay: proteomic peptide phage display deep mutational scan (ProP-PD DMS): M13 P8 16-mer library selected against immobilised GST-tagged bait for four days (rounds), NGS of the eluted pools per day and pseudo-replica; bait immobilised on MaxiSorp plates (10 µg), library pre-cleared on GST, 2 h binding at 4 °C, five washes; one round per day, days 1-4; value from days 2 and 3

Variant	screen value
chain 1 H16D	0.000297 average fractional NGS count over selection days 2 and 3 (reads of this peptide / all reads for the bait, averaged over …
chain 1 V2G	0.000586 average fractional NGS count over selection days 2 and 3 (reads of this peptide / all reads for the bait, averaged over …
chain 1 V2Q	0.000414 average fractional NGS count over selection days 2 and 3 (reads of this peptide / all reads for the bait, averaged over …
chain 1 V2F	0.000314 average fractional NGS count over selection days 2 and 3 (reads of this peptide / all reads for the bait, averaged over …
chain 1 T7W	0.00146 average fractional NGS count over selection days 2 and 3 (reads of this peptide / all reads for the bait, averaged over …
chain 1 Q14E	0.000547 average fractional NGS count over selection days 2 and 3 (reads of this peptide / all reads for the bait, averaged over …
chain 1 E15T	0.00184 average fractional NGS count over selection days 2 and 3 (reads of this peptide / all reads for the bait, averaged over …

Variants of: B2
Assay: as above

Variant	screen value
chain 1 Q15H	0.00187 average fractional NGS count over selection days 2 and 3 (reads of this peptide / all reads for the bait, averaged over …
chain 1 Q15A	0.00403 average fractional NGS count over selection days 2 and 3 (reads of this peptide / all reads for the bait, averaged over …
chain 1 Q15M	0.00112 average fractional NGS count over selection days 2 and 3 (reads of this peptide / all reads for the bait, averaged over …
chain 1 Q15E	0.000569 average fractional NGS count over selection days 2 and 3 (reads of this peptide / all reads for the bait, averaged over …
chain 1 Q15N	0.00022 average fractional NGS count over selection days 2 and 3 (reads of this peptide / all reads for the bait, averaged over …
chain 1 Q15D	0.000198 average fractional NGS count over selection days 2 and 3 (reads of this peptide / all reads for the bait, averaged over …
chain 1 Q15L	0.0017 average fractional NGS count over selection days 2 and 3 (reads of this peptide / all reads for the bait, averaged over …
chain 1 Q15I	0.00255 average fractional NGS count over selection days 2 and 3 (reads of this peptide / all reads for the bait, averaged over …
chain 1 Q15W	0.000288 average fractional NGS count over selection days 2 and 3 (reads of this peptide / all reads for the bait, averaged over …
chain 1 Q15S	0.00112 average fractional NGS count over selection days 2 and 3 (reads of this peptide / all reads for the bait, averaged over …
chain 1 Q15V	0.000269 average fractional NGS count over selection days 2 and 3 (reads of this peptide / all reads for the bait, averaged over …
chain 1 Q15T	0.000883 average fractional NGS count over selection days 2 and 3 (reads of this peptide / all reads for the bait, averaged over …
chain 1 Q15G	0.000723 average fractional NGS count over selection days 2 and 3 (reads of this peptide / all reads for the bait, averaged over …
chain 1 Q15P	0.000799 average fractional NGS count over selection days 2 and 3 (reads of this peptide / all reads for the bait, averaged over …
chain 1 Q15Y	0.00994 average fractional NGS count over selection days 2 and 3 (reads of this peptide / all reads for the bait, averaged over …
chain 1 E8H	0.000322 average fractional NGS count over selection days 2 and 3 (reads of this peptide / all reads for the bait, averaged over …
chain 1 E8F	0.00124 average fractional NGS count over selection days 2 and 3 (reads of this peptide / all reads for the bait, averaged over …
chain 1 E8M	0.000135 average fractional NGS count over selection days 2 and 3 (reads of this peptide / all reads for the bait, averaged over …
chain 1 E8V	0.000436 average fractional NGS count over selection days 2 and 3 (reads of this peptide / all reads for the bait, averaged over …
chain 1 E8D	0.000313 average fractional NGS count over selection days 2 and 3 (reads of this peptide / all reads for the bait, averaged over …
chain 1 E8L	0.000201 average fractional NGS count over selection days 2 and 3 (reads of this peptide / all reads for the bait, averaged over …
chain 1 E8A	0.000174 average fractional NGS count over selection days 2 and 3 (reads of this peptide / all reads for the bait, averaged over …
chain 1 E8T	0.00026 average fractional NGS count over selection days 2 and 3 (reads of this peptide / all reads for the bait, averaged over …

Variant	screen value
chain 1 E8Q	0.000434 average fractional NGS count over selection days 2 and 3 (reads of this peptide / all reads for the bait, averaged over …
chain 1 E8W	0.000174 average fractional NGS count over selection days 2 and 3 (reads of this peptide / all reads for the bait, averaged over …
chain 1 E8S	0.000226 average fractional NGS count over selection days 2 and 3 (reads of this peptide / all reads for the bait, averaged over …
chain 1 E8P	0.00018 average fractional NGS count over selection days 2 and 3 (reads of this peptide / all reads for the bait, averaged over …
chain 1 Q10D	0.00111 average fractional NGS count over selection days 2 and 3 (reads of this peptide / all reads for the bait, averaged over …
chain 1 Q10N	0.000239 average fractional NGS count over selection days 2 and 3 (reads of this peptide / all reads for the bait, averaged over …
chain 1 Q10Y	0.00045 average fractional NGS count over selection days 2 and 3 (reads of this peptide / all reads for the bait, averaged over …
chain 1 Q10L	0.00347 average fractional NGS count over selection days 2 and 3 (reads of this peptide / all reads for the bait, averaged over …
chain 1 Q10S	0.000273 average fractional NGS count over selection days 2 and 3 (reads of this peptide / all reads for the bait, averaged over …
chain 1 Q10E	0.000182 average fractional NGS count over selection days 2 and 3 (reads of this peptide / all reads for the bait, averaged over …
chain 1 Q10W	0.000745 average fractional NGS count over selection days 2 and 3 (reads of this peptide / all reads for the bait, averaged over …
chain 1 Q10H	0.000277 average fractional NGS count over selection days 2 and 3 (reads of this peptide / all reads for the bait, averaged over …
chain 1 Q10I	0.000713 average fractional NGS count over selection days 2 and 3 (reads of this peptide / all reads for the bait, averaged over …
chain 1 Q2E	0.00238 average fractional NGS count over selection days 2 and 3 (reads of this peptide / all reads for the bait, averaged over …
chain 1 Q2V	0.000551 average fractional NGS count over selection days 2 and 3 (reads of this peptide / all reads for the bait, averaged over …
chain 1 Q2H	0.00198 average fractional NGS count over selection days 2 and 3 (reads of this peptide / all reads for the bait, averaged over …
chain 1 Q2L	0.00083 average fractional NGS count over selection days 2 and 3 (reads of this peptide / all reads for the bait, averaged over …
chain 1 Q2I	0.000122 average fractional NGS count over selection days 2 and 3 (reads of this peptide / all reads for the bait, averaged over …
chain 1 Q2D	0.000375 average fractional NGS count over selection days 2 and 3 (reads of this peptide / all reads for the bait, averaged over …
chain 1 Q2M	0.000757 average fractional NGS count over selection days 2 and 3 (reads of this peptide / all reads for the bait, averaged over …
chain 1 Q2T	0.00025 average fractional NGS count over selection days 2 and 3 (reads of this peptide / all reads for the bait, averaged over …
chain 1 Q2Y	0.000109 average fractional NGS count over selection days 2 and 3 (reads of this peptide / all reads for the bait, averaged over …
chain 1 Q2P	0.000458 average fractional NGS count over selection days 2 and 3 (reads of this peptide / all reads for the bait, averaged over …

Variant	screen value
chain 1 Q2S	0.00082 average fractional NGS count over selection days 2 and 3 (reads of this peptide / all reads for the bait, averaged over …
chain 1 Q2G	0.00015 average fractional NGS count over selection days 2 and 3 (reads of this peptide / all reads for the bait, averaged over …
chain 1 Q2N	0.000675 average fractional NGS count over selection days 2 and 3 (reads of this peptide / all reads for the bait, averaged over …
chain 1 Q2A	0.000379 average fractional NGS count over selection days 2 and 3 (reads of this peptide / all reads for the bait, averaged over …
chain 1 Q2K	0.000265 average fractional NGS count over selection days 2 and 3 (reads of this peptide / all reads for the bait, averaged over …
chain 1 Q7A	0.000124 average fractional NGS count over selection days 2 and 3 (reads of this peptide / all reads for the bait, averaged over …
chain 1 Q7F	0.000322 average fractional NGS count over selection days 2 and 3 (reads of this peptide / all reads for the bait, averaged over …
chain 1 Q7H	0.00159 average fractional NGS count over selection days 2 and 3 (reads of this peptide / all reads for the bait, averaged over …
chain 1 Q7N	0.000208 average fractional NGS count over selection days 2 and 3 (reads of this peptide / all reads for the bait, averaged over …
chain 1 Q7T	0.000305 average fractional NGS count over selection days 2 and 3 (reads of this peptide / all reads for the bait, averaged over …
chain 1 Q7P	0.000611 average fractional NGS count over selection days 2 and 3 (reads of this peptide / all reads for the bait, averaged over …
chain 1 Q7L	0.00305 average fractional NGS count over selection days 2 and 3 (reads of this peptide / all reads for the bait, averaged over …
chain 1 Q7Y	0.000137 average fractional NGS count over selection days 2 and 3 (reads of this peptide / all reads for the bait, averaged over …
chain 1 Q7W	0.000185 average fractional NGS count over selection days 2 and 3 (reads of this peptide / all reads for the bait, averaged over …
chain 1 Q7M	0.00184 average fractional NGS count over selection days 2 and 3 (reads of this peptide / all reads for the bait, averaged over …
chain 1 Q3F	0.000606 average fractional NGS count over selection days 2 and 3 (reads of this peptide / all reads for the bait, averaged over …
chain 1 Q3A	0.0023 average fractional NGS count over selection days 2 and 3 (reads of this peptide / all reads for the bait, averaged over …
chain 1 Q3G	0.000192 average fractional NGS count over selection days 2 and 3 (reads of this peptide / all reads for the bait, averaged over …
chain 1 Q3V	0.000386 average fractional NGS count over selection days 2 and 3 (reads of this peptide / all reads for the bait, averaged over …
chain 1 Q3W	0.000779 average fractional NGS count over selection days 2 and 3 (reads of this peptide / all reads for the bait, averaged over …
chain 1 Q3S	0.000813 average fractional NGS count over selection days 2 and 3 (reads of this peptide / all reads for the bait, averaged over …
chain 1 Q3T	0.000102 average fractional NGS count over selection days 2 and 3 (reads of this peptide / all reads for the bait, averaged over …
